Laboratory results: article PMC314469, “Protein Interaction Networks by Proteome Peptide Scanning” (PLoS Biology, 2004)

T1: Yhr016c SH3 (YSC84_YEAST), P32793
T1 chain: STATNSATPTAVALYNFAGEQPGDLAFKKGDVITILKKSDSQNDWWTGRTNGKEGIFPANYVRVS

T2: Boi2 SH3 (BOI2_YEAST), P39969
T2 chain: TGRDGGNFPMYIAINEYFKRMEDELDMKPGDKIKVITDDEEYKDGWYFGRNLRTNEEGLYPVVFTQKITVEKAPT

T3: Rvs167 SH3 (RV167_YEAST), P39743
T3 chain: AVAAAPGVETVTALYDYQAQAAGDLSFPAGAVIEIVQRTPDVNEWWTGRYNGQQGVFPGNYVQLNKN

T4: Boi1 SH3 (BOI1_YEAST), P38041
T4 chain: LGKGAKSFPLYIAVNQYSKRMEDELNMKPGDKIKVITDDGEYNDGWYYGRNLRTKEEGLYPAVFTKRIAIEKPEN

T5: Yfr024 SH3 (LSB3_YEAST), P43603
T5 chain: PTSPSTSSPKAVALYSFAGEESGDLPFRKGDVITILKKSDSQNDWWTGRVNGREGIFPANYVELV


What was measured:
Experiment in all cases: SPOT array
[1] = biological target: T1, Yhr016c SH3 (YSC84_YEAST), P32793
[2] = biological target: T2, Boi2 SH3 (BOI2_YEAST), P39969
[3] = biological target: T3, Rvs167 SH3 (RV167_YEAST), P39743
[4] = biological target: T4, Boi1 SH3 (BOI1_YEAST), P38041
[5] = biological target: T5, Yfr024 SH3 (LSB3_YEAST), P43603

normalised SPOT signal, Boehringer light units (BLU); mean over the file's lines of this peptide [1] | normalised SPOT signal, Boehringer light units (BLU); mean over the file's lines of this peptide [2] | normalised SPOT signal, Boehringer light units (BLU); mean over the file's lines of this peptide [3] | normalised SPOT signal, Boehringer light units (BLU); mean over the file's lines of this peptide [4] | normalised SPOT signal, Boehringer light units (BLU); mean over the file's lines of this peptide [5] | Binder
236 | 37.9 | 37.7 | 47.1 | 162 | SKDPNRPTKFAFES [YML061C 386-399]
533 | 38.5 | 31.9 | 85.9 | 407 | SMTPDSPVKSDLTS [YNL233W 804-817]
99.3 | 85 | 50.4 | 80.9 | 1340 | SHQPYLPIKNKNIV [YDL203C 329-342]
93.6 | 46.2 | 20.5 | 83.1 | 126 | SLDPDRPEKDSVEE [YIR032C 171-184]
201 | 15.4 | 17.9 | 59.5 | 382 | SNFPDFPLKKYLKN [YER087W 333-346]
305 | 84.8 | 29 | 138 | 2620 | SGPPPRPKKPSTLK [YNL138W 352-365]
173 | 54.3 | 45.5 | 7610 | 782 | SLAPVYPLKSLLRI [YDR332W 665-678]
158 | 38.1 | 80.3 | 79 | 97.9 | SLSPKDPERARLLS [YMR145C 263-276]
218 | 36.6 | 47.3 | 23.4 | 1300 | SKVPKAPTRETHIP [YML013W 181-194]
132 | 32.6 | 20.5 | 105 | 1170 | SKFPELPSKVHNAV [YGR264C 141-154]
61.8 | 35.7 | 42.6 | 74.1 | 307 | SNNPSKPRKYKTKS [YIL130W 110-123]
133 | 72.7 | 85.5 | 58.3 | 1230 | SMEPHSPKKAKSVE [YIL112W 773-786]
17100 | 460 | 2610 | 120 | 16600 | SMSPLPPARANKSD [YLR162W 51-64]
136 | 56.3 | 50.3 | 123 | 774 | SHLPLIPEKIKSLK [YDR419W 203-216]
108 | 22.9 | 29.4 | 114 | 758 | SLPPTPPYKAHKKK [YBR007C 353-366]
103000 | 4640 | 58400 | 2650 | 45200 | SKIPMLPSRRTMAG [YHL027W 505-518]
2640 | 13.3 | 161 | 76.6 | 8060 | SNDPIPPPRKVSDV [YGR097W 457-470]
104 | 21.9 | 10 | 111 | 3670 | SHAPTKPTKTYKKW [YOR059C 252-265]
0 | 44.4 | 53.9 | 176 | 380 | SKGPRTPAKEILEF [YDR206W 310-323]
2910 | 6.6 | 140 | 74.2 | 45000 | SKPPQLPPKSSSLR [YJL056C 343-356]
3680 | 119 | 815 | 77.3 | 6190 | SMYPGLPSRLEKEL [YDL029W 307-320]
45.7 | 47 | 20.2 | 196 | 38.9 | SHSPISPLKIETAP [YOR057W 166-179]
